Experimental data reported in the supplement of paper PMC9170038.

Tests used:
MS2 coat protein [1] = test: apparent KD of MS2 coat protein; higher = weaker reporter binding; conditions: Eterna round: R101
Method: (§1)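 RNA-MaP: designed FMN/MS2 RNA switches (84 nt design region) are transcribed on-chip within common flanks and titrated with SNAP-549-labelled MS2 coat protein (about 1-3000 nM) in 100 mM Tris pH 7.5, 80 mM KCl, 4 mM MgCl2, without or with 200 uM FMN. Median apparent KD per design; activation ratio = KD,OFF / KD,ON.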

MS2 coat protein [2] = test: apparent KD of MS2 coat protein; designed switch direction (-1 OFF switch, 1 ON switch): -1; higher = weaker reporter binding; conditions: Eterna round: R98
Method: as §1

MS2 coat protein [3] = test: apparent KD of MS2 coat protein; designed switch direction (-1 OFF switch, 1 ON switch): 1; higher = weaker reporter binding; conditions: Eterna round: R98
Method: as §1

| Sequence | apparent KD of MS2 coat protein (MS2 coat protein [1]; input ligand: FMN 200 uM) [nM] | apparent KD of MS2 coat protein (MS2 coat protein [1]; input ligand: none) [nM] | apparent KD of MS2 coat protein (MS2 coat protein [3]; input ligand: FMN 200 uM) [nM] | apparent KD of MS2 coat protein (MS2 coat protein [3]; input ligand: none) [nM] | further results |
| --- | --- | --- | --- | --- | --- |
| GUCACGGUUAAUUCCGUGACGCGCAAUCCUUGAGGAUCACCCAAGGAUAUCGACGUCAAUGACGUCGAGAAGGUGGUUGAGCGC [#SharedSequence2] (puzzle (switch architecture): Exclusion NG 3) | 23.5 | 13.6 | – | – | – |
| AAAUAACUUGAAGGAUAUCAGGGUGCACCUCAGUAAAACUGAGGUGCACCCUGAGAAGGUCGAGGAUCACCCGACCUAGUGAAA [#SharedSequence SLExNG1: 7-2] (puzzle (switch architecture): Small Loop Exclusion NG 1) | 7.19 | 6.8 | – | – | – |
| AAAUAACUUGAAGGAUAUCAGGGUGCACCUCAGUAAAACUGAGGUGCACCCUGAGAAGGUCGAGGAUCACCCGACCUAAAUAAA [#SharedSequence SLExNG1: 6-2] (puzzle (switch architecture): Small Loop Exclusion NG 1) | 7.27 | 5.76 | – | – | – |
| AAUAUAAGAGCUGGAAAUAAACUCACAUGAGGAUCACCCAUGUAGGAUAUCAGCACGAUAAGUGCUGAGAAGGACAUCCAGCUC [Denovo 56] | – | – | – | – | apparent KD of MS2 coat protein (MS2 coat protein [2]; input ligand: FMN 200 uM): 14.7 nM; apparent KD of MS2 coat protein (MS2 coat protein [2]; input ligand: none): 16.4 nM |
| GGGUCGCUUGGAGGAUAUCCAACUAUCCUAGUUGGAGAAGGCCAAGCUACAGAGCUAAGCUUGGAAGUCACUUCGGACCCACAC [pwkr ssNG1 F9.4.5] | – | – | 47 | 15.6 | – |
| UGAUCGCUUGGAGGAUAUCCAACUAUCCUAGUUGGAGAAGGCCAAGCUACAGAGCUAAGCUUGGAAGUCACUUCGAAUCAACAC [pwkr Chip 1 Control 70 ssNG1 F9.4] | – | – | 64.8 | 53.6 | – |
| GGAUCCAUCACAGGAUAUGCUGGACUUUGUCCAGCAGAAGGGUGAACAUGAGGAUCACCCAUGUAUUGGAUCCAUAUAUUUAAU [Denovo 35] | – | – | 94.1 | 1290 | – |
| GACUGCAGGAUAACAACCUGCAGUCACUUCUGAGGAUCACCCAGAAGGGCUGAGGUAAUACCUCAGCAGGAUAUGGAGUGUAAA [#SharedSequence IExNG# - 8] (puzzle (switch architecture): Inverted Exclusion NG 3) | 70.1 | 21.9 | – | – | – |
| CCUGUCGCAUGAGGAUAUGGUCAGCUUUGCUGACCAGAAGGCAUGUCAAUAGACAUGAGGAUCACCCAUGUAGUAAAGACAGGA [Mat - Same State NG 1 - JL Mod - D36] | – | – | 36.2 | 395 | – |
| GGUGCACGCACAGGAUAUCCGGCGAAGCUCGUCGGAGAAGGGUGACAUGAGGAUCACCCAUGUACGUGCAGCCAAGUUUGAGAG [Laaar] (puzzle (switch architecture): Same State NG 1) | 47.6 | 26.8 | – | – | – |
| CCGAUUAGCACAGGAUAUGGGAGUUCGUAGCUCCCAGAAGGGUGAGCCAAUACAUGAGGAUCACCCAUGUGCGGUAGGUCAGGA [Energe] | – | – | 56 | 57.1 | – |
| AAUAUGAGCUGGAAUAUAAAACUCACAUGAGGAUCACCCAUGUAGGAUAUCAGCACGAUAAGUGCUGAGAAGGACAACCAGCUC [Denovo 31] | – | – | – | – | apparent KD of MS2 coat protein (MS2 coat protein [2]; input ligand: FMN 200 uM): 15.1 nM; apparent KD of MS2 coat protein (MS2 coat protein [2]; input ligand: none): 16.8 nM |
| UAAAUAGAUCCUAGAGGAUCACCCUAGGAUAUCACCGUCGAGGUGCCAUAAUGGCACCUCGACGGUGAGAAGGAGGAAAAUAAA [#SharedSequence - SLExNG3: 5] (puzzle (switch architecture): Small Loop Exclusion NG 3) | 21.8 | 11.5 | – | – | – |
| GUCAGCUCGUGAGGAUAUACAACACUGCUUCGGCAGUGUAUUAAGAUCACAUGAGGAUCACCCAUGUAGAAGGCACGAGCUGAU (puzzle (switch architecture): Exclusion NG 2) | 240 | 13.9 | – | – | – |
| GACUUGGCUACAUGAGGAUCACCCAUGUUUGACUGGAUCGAUUAGGAUAUAGUGAUUUGCAACAAUUAGAAGGGAUAUUUACGG [byesamestateseeyounextround#3] | – | – | 31.3 | 32.9 | – |
| GCUUGCGACGCAGGAUAUGGGUGCCUGCACACGAGGAUCACCCGUGUAGAGGAAGCGAAAAGCUCUCAGAAGGGCGUCGCAGGC [United States 5 - Jieux - Same State NG 2] | – | – | 20.7 | 45.3 | – |
